From US20260176358A1
pEC50, pIC50: −log10 of the molar value.

Tests used:
PACAP38 [1] = target: PACAP38 (UniProt P18509); test: competition ELISA, biotinylated PACAP38 to coated PAC1-Fc
PACAP27 = PACAP27 (UniProt P18509); test: ELISA, biotinylated peptide on streptavidin plate
VIP = VIP (UniProt P01282); test: ELISA, biotinylated peptide on streptavidin plate
PACAP38 [2] = target: PACAP38 (UniProt P18509); test: ELISA, biotinylated peptide on streptavidin plate
PACAP38 [3] = target: PACAP38 (UniProt P18509); test: competition ELISA, biotinylated PACAP38 to coated VPAC2-Fc
PACAP38 [4] = target: PACAP38 (UniProt P18509); test: competition ELISA, biotinylated PACAP38 to coated VPAC1-Fc
CGRP = test: cell-based or functional assay

Sequence of PACAP38 (P18509 132-169 limits assumed): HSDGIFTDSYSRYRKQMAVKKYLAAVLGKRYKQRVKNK
Sequence of VIP (P01282 125-152 limits assumed): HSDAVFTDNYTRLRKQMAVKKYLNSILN
Sequence of PACAP27 (P18509 132-158 limits assumed): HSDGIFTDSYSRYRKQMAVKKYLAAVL

Row | pIC50 (PACAP38 [1]) | pEC50 (PACAP27) | pEC50 (VIP) | pEC50 (PACAP38 [2]) | pIC50 (PACAP38 [3]) | pIC50 (PACAP38 [4]) | IC50, inhibition of cAMP production in SK-N-MC cells (CGRP) [nM] | Substance
1 | 8.31 | 9.82 | 8.99 | 10.15 | 8.80 | 9.19 |  | ALD-1910 (antibody)
2 |  |  |  |  |  |  | 40 | Fremanezumab (antibody)
3 | 8.19 | 9.96 | 8.02 | 10.22 | 8.85 | 8.87 |  | LY-3451838 (antibody)
